Test results published in publication PMC2688388.

Target: mCeruleanC-α1C,77 (human Cav1.2 calcium channel α1C,77 subunit labeled at the C-tail with mCerulean) (human)
Test: FRET or BRET; two-color FRET (mCerulean/tagRFP) epifluorescence microscopy in COS1 cells, control for cascade transfer: Rβ3 and α1CC without Vα1C

mCeruleanC-α1C,77 (human Cav1.2 calcium channel α1C,77 subunit labeled at the C-tail with mCerulean) (human), sequence (Q13936 whole entry): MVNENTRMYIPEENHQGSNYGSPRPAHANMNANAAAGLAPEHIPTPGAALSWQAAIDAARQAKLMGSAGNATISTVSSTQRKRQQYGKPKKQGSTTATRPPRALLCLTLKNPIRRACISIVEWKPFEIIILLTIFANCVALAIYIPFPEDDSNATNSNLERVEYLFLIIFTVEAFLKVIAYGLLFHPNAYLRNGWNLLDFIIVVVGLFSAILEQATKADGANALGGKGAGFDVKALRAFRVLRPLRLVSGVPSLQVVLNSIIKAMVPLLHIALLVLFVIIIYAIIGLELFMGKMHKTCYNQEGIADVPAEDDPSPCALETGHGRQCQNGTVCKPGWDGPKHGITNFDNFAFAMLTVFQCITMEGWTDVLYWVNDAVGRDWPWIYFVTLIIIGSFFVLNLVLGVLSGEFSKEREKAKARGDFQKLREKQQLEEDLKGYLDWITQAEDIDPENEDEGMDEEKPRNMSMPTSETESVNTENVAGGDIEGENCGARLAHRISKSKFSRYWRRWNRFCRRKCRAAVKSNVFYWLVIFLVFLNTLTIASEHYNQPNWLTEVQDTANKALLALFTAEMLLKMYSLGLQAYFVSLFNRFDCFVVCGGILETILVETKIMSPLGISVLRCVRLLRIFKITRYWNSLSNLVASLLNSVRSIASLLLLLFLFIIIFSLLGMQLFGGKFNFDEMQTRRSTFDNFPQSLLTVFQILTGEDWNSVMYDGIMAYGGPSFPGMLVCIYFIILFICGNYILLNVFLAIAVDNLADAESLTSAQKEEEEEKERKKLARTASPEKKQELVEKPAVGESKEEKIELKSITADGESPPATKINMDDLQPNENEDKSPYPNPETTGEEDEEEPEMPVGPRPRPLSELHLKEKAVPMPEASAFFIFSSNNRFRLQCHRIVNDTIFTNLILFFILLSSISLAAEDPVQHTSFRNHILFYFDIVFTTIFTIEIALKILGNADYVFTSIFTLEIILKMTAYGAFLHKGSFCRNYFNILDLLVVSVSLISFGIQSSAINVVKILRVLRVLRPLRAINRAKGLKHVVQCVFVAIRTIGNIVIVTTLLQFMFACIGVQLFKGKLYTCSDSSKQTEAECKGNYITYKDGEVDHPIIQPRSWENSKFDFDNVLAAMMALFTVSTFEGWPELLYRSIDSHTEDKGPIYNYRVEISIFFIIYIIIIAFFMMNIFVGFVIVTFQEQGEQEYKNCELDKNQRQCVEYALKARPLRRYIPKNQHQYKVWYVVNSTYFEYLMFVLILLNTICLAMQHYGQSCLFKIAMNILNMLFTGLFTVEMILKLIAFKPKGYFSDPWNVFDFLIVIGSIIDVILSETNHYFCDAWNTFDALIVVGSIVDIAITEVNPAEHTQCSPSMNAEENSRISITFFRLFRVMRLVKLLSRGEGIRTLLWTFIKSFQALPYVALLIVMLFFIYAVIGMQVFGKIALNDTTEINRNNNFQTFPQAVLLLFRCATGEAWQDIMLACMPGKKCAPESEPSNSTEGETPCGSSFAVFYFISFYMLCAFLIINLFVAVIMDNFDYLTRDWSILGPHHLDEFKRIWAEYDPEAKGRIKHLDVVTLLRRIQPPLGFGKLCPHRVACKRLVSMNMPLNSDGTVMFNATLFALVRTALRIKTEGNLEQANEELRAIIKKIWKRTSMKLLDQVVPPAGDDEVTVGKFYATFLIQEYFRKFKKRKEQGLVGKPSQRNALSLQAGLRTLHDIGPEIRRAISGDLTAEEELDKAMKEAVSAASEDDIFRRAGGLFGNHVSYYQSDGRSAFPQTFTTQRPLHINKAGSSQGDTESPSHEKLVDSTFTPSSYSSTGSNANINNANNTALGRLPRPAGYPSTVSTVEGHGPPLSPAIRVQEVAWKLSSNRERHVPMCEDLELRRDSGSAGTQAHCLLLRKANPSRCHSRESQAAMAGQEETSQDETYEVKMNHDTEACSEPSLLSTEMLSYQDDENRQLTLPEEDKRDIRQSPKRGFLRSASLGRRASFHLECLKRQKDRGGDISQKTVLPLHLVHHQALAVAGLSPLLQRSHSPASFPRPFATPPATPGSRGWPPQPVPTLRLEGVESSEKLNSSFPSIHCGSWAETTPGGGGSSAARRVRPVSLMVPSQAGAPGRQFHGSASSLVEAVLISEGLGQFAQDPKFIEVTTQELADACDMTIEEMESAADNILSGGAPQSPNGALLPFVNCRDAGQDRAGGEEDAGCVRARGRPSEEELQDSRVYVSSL

Work on “RFP-β3 (human Cavβ3 subunit with tagRFP fused to the N-terminus) (from UniProt P54284 1-484) (natural protein)” yielded an FRET efficiency of 0.05.
